Source: patent publication US20140057807A1 (UNIVERSITY OF CHICAGO, published 2014)
Where a chain is given by its changes, count along the chain named.

T1: human Abl SH2 domain (human, UniProt P00519 112-232, limits assumed)
T1 construct: domain: SH2 domain; poly-histidine tagged in selection; tag cleaved for SPR and crystals; also called Ab1SH2; SH2 domain of Abl kinase
T1 sequence (looked up): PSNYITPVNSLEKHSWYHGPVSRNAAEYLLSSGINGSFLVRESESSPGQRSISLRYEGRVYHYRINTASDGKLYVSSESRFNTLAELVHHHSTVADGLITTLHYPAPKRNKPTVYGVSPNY

B1: hS1MB-7 (designed binder)
chain: VSSVPTKLEVVAATPTSLLISWDASSSSVSYYEITYGETGGNSPVQEFTVPGSSSTATISGLSPGVDYTITVIAFYSHDDIYISDSPSSINYRT
B2: SH13 (designed binder)
chain: VSSVPTKLEVVAATPTSLLISWDAPAVDFYVYLITYGETGGNSPVQEFTVPGSKSTATISGLSPGVDYTITVYGYSDSWNWPYSPISINYRT
notes: also called SH13 monobody
B3: ySMB-ST1 (designed binder)
chain: B1 chain with E33R, I73Y, F75Y, H78Y, D79Y, I83Y, S84A, D85V
B4: ySMB-ST3 (designed binder)
chain: VSSVPTKLEVVAATPTSLLISWDASSSSVSYYRITYGETGGNSPVQEFTVPGSSSTATISGLSPGVDYTITVFAYYSEEFFDYAYSPSSINYRT
B5: ySMB-ST5 (designed binder)
chain: B4 chain with F73Y, E78Y, E79Y, F80N, F81I, D82F, Y83F, Y85D
B6: ySMB-1 (designed binder)
chain: B4 chain with F73Y, E78Y, E79Y, F80D, F81L, D82Y, A84S
notes: it may hold only the diversified positions and not the whole FnIII domain; BC and DE loops are polyserine; also called monobody ySMB-1; FnIII domain variant ySMB-1
B7: ySMB-ST4 (designed binder)
chain: B4 chain with F73Y, E78D, E79D, F81L, Y83F, Y85F
B8: ySMB-ST2 (designed binder)
chain: B4 chain with F73Y, Y85V
B9: GG3 (designed binder)
chain: VSSVPTKLEVVAATPTSLLISWDAPAVTVVHYVITYGETGGNSPVQEFTVPGSKSTATISGLSPGVDYTITVYALLSSSHWVYESPISINYRT
B10: SEQ ID NO 81 (designed binder)
chain: VSSVPTKLEVVAATPTSLLISWDAPAVTVDLYLITYGETGGNSPVQEFKVPGSKSTATISGLSPGVDYTITVYAGSDYYYYYQGAYWSPISINYRT
B11: SEQ ID NO 82 (designed binder)
chain: VSSVPTKLEVVAATPTSLLISWDAPAVTVDFYVITYGETGGNSPVQEFTVPGSKSTATISGLSPGVDYTITVYANWAYSYRYSPISINYRT
B12: SEQ ID NO 84 (designed binder)
chain: B11 chain with F31Y, V33L, N75W, W76D, A77P, S79W, Y80D, R81V, Y82M
B13: SEQ ID NO 83 (designed binder)
chain: B11 chain with D30F, F31Y, T49E, W76Y, A77P, R81M
B14: SEQ ID NO 85 (designed binder)
chain: VSSVPTKLEVVAATPTSLLISWDAPAVTVDLYVITYGETGGNSPVQEFTVPGSKSTATISGLSPGVDYTITVYAGWGNWELGYSWSSPISINYRT
B15: ySMB-53 (designed binder)
chain: VSSVPTKLEVVAATPTSLLISWDASSSSVSYYRITYGETGGNSPVQEFTVPGSSSTATISGLSPGVDYTITVYAYQSFGYNEYWSSGSPISINYRT
notes: variable loops only; library YSGW
B16: ySMB-54 (designed binder)
chain: VSSVPTKLEVVAATPTSLLISWDAGYDESVMYYRITYGETGGNSPVQEFTVPGSSSTATISGLSPGVDYTITVYAYREYDGLYYSYSPISINYRT
notes: as for B15
B17: Clone# 2 (ySUMO Monobodies) (designed binder)
chain: B4 chain with F73Y, Y85V
notes: recovered against ySUMO from the SUMO-targeted library
B18: Clone# 3 (ySUMO Monobodies) (designed binder)
chain: B4 chain
notes: as for B17
B19: Clone# 4 (ySUMO Monobodies) (designed binder)
chain: B4 chain with F73Y, E78D, E79D, F81L, Y83F, Y85F
notes: as for B17
B20: Clone# 5 (ySUMO Monobodies) (designed binder)
chain: B4 chain with F73Y, E78Y, E79Y, F80N, F81I, D82F, Y83F, Y85D
notes: as for B17
B21: ySMB-6 (designed binder)
chain: VSSVPTKLEVVAATPTSLLISWDASSSSVSYYRITYGETGGNSPVQEFTVPSYSSTATISGLSPGVDYTITVYAYWEFEYGYWSYSPISINYRT
notes: as for B15
B22: ySMB-2 (designed binder)
chain: B21 chain with S52G, Y53S, E77T, F78Y, Y80W, W83M, S84Y, Y85D
B23: ySMB-7 (designed binder)
chain: B21 chain with S52G, Y53S, W76Q, F78W, E79S, Y82W, W83S, Y85E
notes: as for B15
B24: ySMB-5 (designed binder)
chain: VSSVPTKLEVVAATPTSLLISWDAPANSVSYYRITYGETGGNSPVQEFTVPGSSSTATISGLSPGVDYTITVYAYEWYGWGWTYSPISINYRT
notes: as for B15
B25: ySMB-8 (designed binder)
chain: VSSVPTKLEVVAATPTSLLISWDAYVGYGSSVAYYRITYGETGGNSPVQEFTVPGSSSTATISGLSPGVDYTITVYAYYYEGDDLYSSMSPISINYRT
notes: as for B15
B26: ySMB-4 (designed binder)
chain: VSSVPTKLEVVAATPTSLLISWDAPWAYSQSVAYYRITYGETGGNSPVQEFTVPGSSSTATISGLSPGVDYTITVYAYYGTPWGEGWYSWSPISINYRT
notes: as for B15
B27: hS1MB-16 (designed binder)
chain: B1 chain with Y31H, E33D, I73Y, F75Y, Y76N, Y82F, S84A, D85Y
B28: hS1MB-23 (designed binder)
chain: B1 chain with Y31H, I73Y, F75Y, Y82F, I83Y, S84A, D85F

target: T2, yeast small ubiquitin-like modifier protein (yeast, UniProt Q12306 3-98 = SUMO); test: titration phage ELISA: His-tagged target captured via BT-Tris-NTA on NeutrAvidin-coated wells, serial 5-fold dilutions of phage supernatant
T2 construct: GST fusion in most phage ELISAs, His-tagged or tag-cleaved elsewhere; also called ySUMO; yeast SUMO
Method in brief: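 Phage ELISA with phage-containing supernatant from XL21 cells grown with 0.2 mM IPTG and helper phage K07. His-tagged target (50 nM) was complexed with BT-Tris NTA on NeutrAvidin-coated, BSA-blocked wells for 30 minutes. A 30% phage supernatant and serial 5-fold dilutions in TBS/0.5% BSA were incubated for 30 minutes at room temperature. Detection used anti-M13-HRP and TMB, quenched with H₂SO₄, with absorbance at 450 nm scaled to 1 cm path-length.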

T2 sequence (Q12306 3-98 limits assumed): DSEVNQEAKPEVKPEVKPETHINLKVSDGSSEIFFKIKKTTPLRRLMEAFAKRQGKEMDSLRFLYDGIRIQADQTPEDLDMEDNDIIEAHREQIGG

Binder	binding result
B1	no binding

target: T1, human Abl SH2 domain; test: method not given

Binder	Kd [nM]
B2	~4000

target: T2, yeast small ubiquitin-like modifier …; test: SPR (Biacore 2000), monobody immobilised via His-tag on NTA surface, ySUMO flowed over it
Protocol: (§1) Cradle molecules purified as described above were immobilized via His-tag to an NTA surface using a Biacore™ 2000 instrument so that the theoretical maximum response (Rₘₐₓ) from target binding was 100-200 RU. Target protein at varying concentrations was then flowed over the surface at a flow rate of 30 μL/min and the binding signal recorded. Fitting of kinetic traces was carried out using the BIAevaluation software. For equilibrium experiments, the equilibrium binding response was recorded for multiple target concentrations and fit to a simple 1:1 saturation binding curve.

Binder	Kd [nM]
B3	39
B4	435
B5	112
B6	72
B7	3300
B8	194

target: T1, human Abl SH2 domain; test: phage display selection hit, BL2 library

Binder	binding result
B9	binds
B10	binds
B11	binds
B12	binds
B13	binds
B14	binds

target: T1, human Abl SH2 domain; test: Kd (nM) column of the drawn table; the method for this clone is not stated (SH13 came directly from the phage display library)

Binder	Kd [nM]
B2	6800

target: T2, yeast small ubiquitin-like modifier …; test: SPR; column 'Estimated Kd (nM)' [Continued]
Method in brief: (§2)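 Binding was measured by surface plasmon resonance on a Biacore 2000, with purified His-tagged molecules captured on an NTA surface to a theoretical maximum target response of 100-200 RU. Target was passed over at several concentrations at 30 μL/min while the binding signal was recorded. Kinetic fits were made in BIAevaluation software, or equilibrium responses at multiple concentrations were fit to a 1:1 saturation binding curve. The estimated Kd came from one of these two approaches.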

Binder	Kd [nM]
B15	380
B16	950

target: T2, yeast small ubiquitin-like modifier …; test: SPR (monobody on the chip via His-tag, target flowed); estimated Kd
Protocol: as §1

Binder	Kd [nM]
B17	194
B6	72
B18	435
B19	3300
B20	112

target: T2, yeast small ubiquitin-like modifier …; test: SPR
Protocol: as §1

Binder	Kd [nM]
B21	166
B22	45
B23	800
B24	100
B25	350
B26	210

target: T2, yeast small ubiquitin-like modifier …; test: titration phage ELISA
Protocol: hSUMO1-binding cradle molecules had varied ability to discriminate hSUMO1 and ySUMO as assessed by phage ELISA (FIGS. 25A and 26A).
For phage amplification, E. coli XL1-Blue cells transformed with the LacI containing plasmid pMCSG21 (Stols, et al., Protein Express. Purif. (2007) 53:396-403) (termed “XL21” hereafter) were used. Cradle molecule displaying phage were prepared by growing XL21 cells transfected with phagemid of individual clones in the presence of 0.2 mM IPTG and helper phage K07 (Koide, A., and Koide, S., supra, 2007; Sidhu, et al., supra, 2000). Cultures were then centrifuged and phage containing supernatant used for ELISA assays. All incubations were at room temperature. In all instances except for the phage titration experiment used to test hSUMO1-binding cradle molecule specificity (FIG. 26), wells of a 96-well Microlon© (Greiner) ELISA plate were treated with a 2 μg/mL solution of a GST-fusion of the appropriate target protein, or GST alone in 50 mM Tris Cl buffer containing 150 mM NaCl, pH 7.5 (TBS) and incubated for 1 hour followed by blocking with 0.5% BSA in TBS for 1 hour.

Binder	fold weaker binding to ySUMO than to hSUMO1 [fold]
B27	≥ 100
B1	≥ 100
B28	≥ 100

target: T2, yeast small ubiquitin-like modifier …; test: SPR, fit of the traces to a 1:1 binding model [panel D]
Protocol: as §1

Binder	koff [s⁻¹]	kon [M⁻¹ s⁻¹]
B6	0.09	1.1e+06
B22	0.04	970000

target: T2, yeast small ubiquitin-like modifier …; test: SPR; column 'Estimated Kd (nM)'
Method in brief: as §2

Binder	Kd [nM]
B21	166
B22	45
B23	800
B24	100
B25	350
B26	210

target: T2, yeast small ubiquitin-like modifier …; test: SPR; remark: another data set of the same source
Source text: Such high selectivity was unexpected, because the SIM-binding site is the most highly conserved surface between ySUMO and hSUMO proteins (FIG. 16A). […] Thus, it was expected that generating FnIII domain variants that bind to hSUMOs in a mode similar to the ySUMO-binding FnIII domain variants would yield clones with higher isoform selectivity toward hSUMOs.
as §1

Binder	Kd [nM]
B6	82
